Experimental data: publication PMC7458460 (Science Advances, 2020)

Molecular target: CN391 (CNA_(1–391)/CNB_(1–170)) (UniProt Q08209 1-391; P63098 1-170)
Assay: ITC

Sequence of CN391 (CNA_(1–391)/CNB_(1–170)) (Q08209 1-391, chain 1 of 2): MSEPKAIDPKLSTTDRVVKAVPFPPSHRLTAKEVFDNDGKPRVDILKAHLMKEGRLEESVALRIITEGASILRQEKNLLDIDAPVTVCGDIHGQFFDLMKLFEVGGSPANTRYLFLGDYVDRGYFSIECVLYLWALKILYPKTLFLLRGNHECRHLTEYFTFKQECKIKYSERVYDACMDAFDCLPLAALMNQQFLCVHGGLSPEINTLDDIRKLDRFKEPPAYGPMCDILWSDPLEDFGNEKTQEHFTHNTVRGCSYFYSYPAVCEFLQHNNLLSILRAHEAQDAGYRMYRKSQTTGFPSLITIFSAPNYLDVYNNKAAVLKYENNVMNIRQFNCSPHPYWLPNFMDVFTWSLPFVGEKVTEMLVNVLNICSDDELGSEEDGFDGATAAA
Sequence of CN391 (CNA_(1–391)/CNB_(1–170)) (P63098 whole entry, chain 2 of 2): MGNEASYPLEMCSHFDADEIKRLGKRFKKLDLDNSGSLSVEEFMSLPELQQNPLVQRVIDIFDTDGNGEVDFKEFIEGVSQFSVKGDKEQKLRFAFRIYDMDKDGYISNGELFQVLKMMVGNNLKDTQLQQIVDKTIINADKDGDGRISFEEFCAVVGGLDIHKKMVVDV

Binder | Kd | dH
RCAN1 CN-binding domain (residues 89 to 197) (domain or fragment) not shown | 16 ± 5 nM | -30.7 ± 0.8 kcal/mol
p38-phosphorylated RCAN1 (residues 89 to 197) (domain or fragment, pS108, pS112, pT124, pT153, pT192 (pT152 partially, much more slowly)) not shown | 429 ± 85 nM | -32.4 ± 1.6 kcal/mol
